# Source: publication PMC4973743, “Functional analysis of structurally related soybean GmWRKY58 and GmWRKY76 in plant growth and development”
# Positions count from the first letter of the chain named.
# B1: Pchn5 (dsDNA)
# DNA 1: GGAACTTGACCATCCGTTGACCGGGCTGCAGGAATTCG
# DNA 2: CGAATTCCTGCAGCCCGGTCAACGGATGGTCAAGTTCC
# B2: mPchn5 (dsDNA)
# DNA 1: B1 DNA 1 with C10A, C21A
# DNA 2: B1 DNA 2 with G18T, G29T
# Experiments:
# GmWRKY58 = molecular target: T1, GmWRKY58 (Glycine max (soybean), UniProt B0LUS3 1-317); test: EMSA; 5 ug poly(dI-dC), 1 ug protein; LightShift Chemiluminescent EMSA kit; 20 ul reactions, 2 ng labeled oligo, 5 ug poly(dI-dC), 1 ug recombinant protein; buffer, salt, pH and temperature not stated; conditions: tags: His (pET32a fusion), label: biotin 3' end
# T1 sequence: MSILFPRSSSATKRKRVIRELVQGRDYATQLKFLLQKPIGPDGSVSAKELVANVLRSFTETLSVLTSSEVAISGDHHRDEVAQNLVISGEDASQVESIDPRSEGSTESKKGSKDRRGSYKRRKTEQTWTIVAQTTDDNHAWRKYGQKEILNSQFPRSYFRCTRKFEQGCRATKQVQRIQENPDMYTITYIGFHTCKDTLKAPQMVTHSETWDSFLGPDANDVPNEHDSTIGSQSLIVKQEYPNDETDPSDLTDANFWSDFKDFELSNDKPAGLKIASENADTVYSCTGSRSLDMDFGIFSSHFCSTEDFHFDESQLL
# GmWRKY76 = molecular target: T2, GmWRKY76 (Glycine max (soybean), UniProt I1KB70 1-319); test: as above; conditions: tags: His (pET32a fusion), label: biotin 3' end
# T2 sequence: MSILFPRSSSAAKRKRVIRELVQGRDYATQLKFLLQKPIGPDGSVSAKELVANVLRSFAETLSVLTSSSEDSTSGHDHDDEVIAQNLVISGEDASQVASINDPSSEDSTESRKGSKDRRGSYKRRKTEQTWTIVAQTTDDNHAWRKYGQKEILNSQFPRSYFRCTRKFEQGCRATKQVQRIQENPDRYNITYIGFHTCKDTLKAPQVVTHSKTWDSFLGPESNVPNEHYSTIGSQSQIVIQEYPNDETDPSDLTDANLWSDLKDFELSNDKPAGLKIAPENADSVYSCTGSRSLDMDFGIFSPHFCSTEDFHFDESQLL
Binder,binding result (GmWRKY58),binding result (GmWRKY76)
B1,binds,binds
B2,no binding,no binding
